Data reported in patent US20050049403A1 (CAMBRIDGE ANTIBODY TECHNOLOGY, published 2005).
Residue numbers refer to the chain shown, from its start.

Key:
[1] = molecular target: T1, TGFβ2 in rat tissue sections (rat, UniProt Q07257 331-442, limits assumed); assay: immunohistochemistry, 6B1 IgG4 at 500 ng/ml on pronase E treated rat kidney sections
T1 construct: also called rat TGFβ2
T1 sequence (looked up): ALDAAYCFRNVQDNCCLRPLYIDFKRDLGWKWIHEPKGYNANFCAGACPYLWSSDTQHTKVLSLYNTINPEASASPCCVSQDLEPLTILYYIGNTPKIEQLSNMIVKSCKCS
Method: Paraffin embedded rat tissues were de-waxed and rehydrated through an alcohol series. The sections were then treated with 0.1% pronase E for exactly 8 min and then washed in water. TGFβ2 was detected in the sections using 6B1 IgG4 at 500 ng/ml following the protocol provided with a Vectastain ABC (avidin-biotin-complex) kit from Vector Laboratories. On kidney sections, bound antibody was located with alkaline phosphatase and peroxidase was used on rat brain tissues.

recombinant human TGFβ2 [2] = molecular target: T2, recombinant human TGFβ2 (human, UniProt P61812 303-414); assay: radioreceptor assay, inhibition of 125I-TGFβ2 binding to A549 cells; concentration of antibody combining sites
T2 construct: mature; also called TGFbeta2; rhTGFβ2
T2 sequence (looked up): T1 sequence (looked up) with T59S, K60R, N94K
Method: Cells are seeded at 1-2×10^5 cells/ml/well into the wells of 24-well cluster plates and grown for 24 h in serum-free DMEM. Cell monlayers are washed twice with serum-free DMEM and 0.5 ml binding medium (DMEM/Hams F12 (Sigma D-6421) containing 0.1% (v/v) BSA added to each well.
(§1) Aliqouts of ¹²⁵I-TGFβ1 or TGFβ2 (70-90 TBq/mmol; Amersham International) at 20 pM are preincubated with antibody in binding medium at room temperature for 1 h. Duplicate samples of 0.5 ml of TGFβ/antibody mixtures are then added to the cell monlayers and are incubated at 37° C. for 1-2 h. Control wells contain TGFβ only. Unbound TGFβ is removed by washing 4 times with Hank's balanced salt solution containing 0.1% BSA. Cells are solubilised in 0.8 ml 25 mM Tris HCl pH 7.5, 10% glycerol, 1% Triton X-100 at room temperature for 20 min. The contents of each well are removed and ¹²⁵I measured in a gamma counter.

[3] = molecular target: T3, phage peptide display Clone 1 (RQLSLQQRMH); assay: phage ELISA on coated 6B1 IgG4 after four rounds of panning
T3 peptide: RQLSLQQRMH
Method: (§2) Purified 6B1 IgG4 antibody at 10 μg/ml in 4 ml of PBS was coated onto a plastic tube (Nunc; maxisorp) by incubating overnight at 4° C. After washing and blocking with MPBS (see Example 1) an aliquot of the peptide library containing 5×10¹³ phage in 4 ml 3% MPBS was added to the tube and incubated at room temperature for 1.5 hours. The tube was washed 10 times with PBST(0.1%), then 10 times with PBS. Bound phage particles were eluted from the tube by adding 4 ml of 100 mM triethylamine and incubating the tube stationary for 10 minutes at room temperature. The eluted phage were then added to a tube containing 2 ml 1M-Tris.HCl (pH7.4) and 10 ml 2YT broth. The phage were then added to 20ml of logarithmically growing E. coli TG1 cells and grown for 1 hour shaking at 100 rpm at 37° C. The infected cells were then plated on 2YT agar medium with 15 μg/ml tetracycline in 243 mm×243 mm dishes (Nunc). Plates were incubated at 30° C. for 18 hours. Colonies were scraped off the plates into 10 ml 2TY broth containing 15% (v/v) glycerol for storage at −70° C.
(§3) These clones were screened for clones that bound specifically to the antibody 6B1 in ELISA. Cells from the master plates were used to inoculate 96 well tissue culture plates containing 100 μl 2YT broth (containing 15 μg/ml tetracycline) per well and grown overnight with gentle shaking at 100 rpm at 30° C. The plates were then centrifuged at 2000 rpm. The 100 μl phage supernatants from each well were recovered and each was mixed with 100 μl of 4% skimmed milk powder in 2×PBS. 100 μl of each of these was then assayed by phage ELISA. Purified 6B1 IgG4 antibody at 10 μg/ml in PBS was coated onto flexible microtitre plates by incubating overnight at 4° C. Control plates coated with an irrelevant IgG4 antibody at 10 μg/ml were also prepared. The ELISAs were performed as described in Example 1, and visualised with the chromagenic substrate pNPP (Sigma).

[4] = molecular target: T4, phage peptide display clone VESTSLQFRG (fourth clone, printed as Clone 3); assay: as above
T4 construct: also called Clone 3 (second of that label)
T4 peptide: VESTSLQFRG
Method: as §2, §3

[5] = molecular target: T5, phage peptide display Clone 3 (WSEFMRQSSL); assay: as above
T5 peptide: WSEFMRQSSL
Method: as §2, §3

[6] = molecular target: T6, phage peptide display Clone 2 (DPMDMVLKLC); assay: as above
T6 peptide: DPMDMVLKLC
Method: as §2, §3

recombinant human TGFβ1 [7] = molecular target: T7, recombinant human TGFβ1 (human, UniProt P01137 279-390); assay: A549 cell radioreceptor assay (nM IgG); A549 cell radioreceptor assay; no inhibition up to 400 nM IgG
T7 construct: mature; also called TGFbeta1
T7 sequence (P01137 279-390 limits assumed): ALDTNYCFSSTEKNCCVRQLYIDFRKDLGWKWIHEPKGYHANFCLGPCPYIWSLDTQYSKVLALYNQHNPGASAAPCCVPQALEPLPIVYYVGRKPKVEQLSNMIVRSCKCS
Method: as §1
The ability of 6B1 IgG4 to inhibit binding of TGFβ isoforms to receptors was measured in a radioreceptor assay as described in example 4.

recombinant human TGFβ2 [8] = molecular target: T2, recombinant human TGFβ2; assay: cell-based or functional assay
recombinant human TGFβ1 [9] = molecular target: T7, recombinant human TGFβ1; assay: cell-based or functional assay

B1: 6B1 IgG4 (antibody, V domains shown)
VH: EVQLVESGGGVVQPGRSLRLSCAASGFTFSSYGMHWVRQAPGKGLEWVAVIWYDGSNKYYADSVKGRFTISRDNSKNTLYLQMDSLRAEDTAVYYCGRTLESSLWGQGTLVTVSS
VL: SSELTQDPAVSVALGQTVRITCQGDSLRSYYASWYQQKPGQAPVLVIYGKNNRPSGIPDRFSGSSSGNTASLTITGAQAEDEADYYCNSRDSSSTHRGVFGGGTKLTVLG
notes: Whole antibody: human gamma 4 and human lambda constant regions; FITC-labelled in the human tissue study; also called antibody 6B1
With B1 the binding result [1] was “binds”, the IC50 (recombinant human TGFβ2 [2]) was 0.6 nM and the binding result [3] was “binds”. B1: binds [4]; binds [5]; binds [6]. For the same binder, the IC50 (recombinant human TGFβ1 [7]) was over 400 nM, the “TF1 cell proliferation assay IC50 (nM IgG)” value (recombinant human TGFβ2 [8]) was 2 nM and the “TF1 cell proliferation assay IC50 (nM IgG)” value (recombinant human TGFβ1 [9]) was over 100 nM.
